The values below come from publication PMC12316982 (Nature Communications, 2025).

Sequences and labels used below:
B1: NCS.1.3 (human IgG1) (antibody, V domains shown)
VH: QVQLQESGPRLVKPSETLSLTCSVSGESISSGGYYWTWIRQHPGKGLEWIGNIFDTGSTDYSPSLKTRLTISIDTSKNQFYLRLTSATAADTAVYYCARVGFSLETDRPYYLGLDVWGQGTTVTVSS
VL: DIVMTQSPLTLPVTPGEPASISCRSSQSLLHSNGYTYLDWYLQKPGQSPQLLIYFASNRASGVPDRFSGSGSGTYFTLKISRVEAEDVGVYYCMQAVQSPWTFGQGTKVEIK
B2: NCS.1 (human IgG1) (antibody, V domains shown)
VH: QVQLPESGPRLVKPSETLSLTCSVSGESISSGGYYWTWIRQHPGKGLEWIGNIFDTGSTHYSPSLKTRLTISIDTSKNQFYLRLNSATAADTAVYYCARVGYSLETDRPYYFGLDVWGQGTTVTVSS
VL: DIVMTQSPLSLPVTPGEPASISCRSSQSLLHSNGYTYLDWYLQKPGQSPQLLIYLASNRASGVPDRFSGSGSGTYFTLKISRVEAEDVGVYYCMQAVQTPWTFGQGTKVEIK
B3: NCS.1.1 (human IgG1) (antibody, V domains shown)
VH: QVQLQESGPRLVKPSETLSLTCSVSGESISSGGYYWTWIRQHPGKGLEWIGNIFDTGSTDYSPSLKTRLTISIDTSKNQFYLRLNSATAADTAVYYCARVGFSLETDRPYYLGLDVWGQGTTVTVSS
VL: DIVMTQSPLSLPVTPGEPASISCRSSQSLLHSNGYTYLDWYLQKPGQSPQLLISFTSNRASGVPDRFSGSGSGTYFTLKISRVEAEDVGVYYCMQAVQTPWTFGQGTKVEIK

The target in this assay is stabilized neuraminidase protein (sNAp) of A/Vietnam/1203/2004 (VN04, H5N1) (Influenza A virus A/Vietnam/1203/2004 …, UniProt Q6DPL2, stabilised). The assay can be described thus: ELISA. The following applies: both partners purified.
As to B1, the binding result is “binds”. The result for B2 reads “binds”; that for B3, “binds”.
